Test results from the DeepSol protein solubility set.

experiment: soluble on expression in E. coli; label from the status in PepcDB or PDB records

| Sequence | soluble on expression in E. coli |
| --- | --- |
| MDLTQLEMFNAVAEAGSITQAAAKVHRVPSNLTTRLRQLETELGVDLFIRENQRLRLSPAGHNFLRYSQQILALVDEARSVVAGDEPQGLFSLGSLESTAAVRIPATLAEFNRRYPKIQFSLSTGPSGTMLDGVLEGKLNAAFIDGPINHTAIDGIPVYREELMIVTPQGYAPVTRASQVNGSNIYAFRANCSYRRHFESWFHADGAAPGTIHEMESYHGMLACVIAGAGIALIPRSMLESMPGHHQVEAWPLAEQWRWLTTWLVWRRGAKTRPLEAFIQLLDVPDSARQGYQ | soluble |
| MSWIERIKSNITPTRKASIPEGVWTKCDSCGQVLYRAELERNLEVCPKCDHHMRMTARNRLHSLLDEGSLVELGSELEPKDVLKFRDSKKYKDRLASAQKETGEKDALVVMKGTLYGMPVVAAAFEFAFMGGSMGSVVGARFVRAVEQALEDNCPLICFSASGGARMQEALMSLMQMAKTSAALAKMQERGLPYISVLTDPTMGGVSASFAMLGDLNIAEPKALIGFAGPRVIEQTVREKLPPGFQRSEFLIEKGAIDMIVRRPEMRLKLASILAKLMNLPAPNPEAPREGVVVPPVPDQEPEALEHHHHHH | not soluble |
| MFTTYKNINELENAYDEERKQLNDAFNQIDELRHQTRKKCEQMYDHFLYLKHKMNYSEDAMIRMTRIIESFDRETNQRIRHHEMKLEDYKDELRREYLKQSDRIEGDELEHHHHHH | not soluble |
| MSKIADDQNFNDEEENFAKLFKKELEKEETLEKGTIKEGLVVSINENDGYAMVSVGGKTEGRLALNEITDEKGQLLYQKNDPIIVHVSEKGEHPSVSYKKAISQQKIQAKIEELGENYENAIIEGKIVGKNKGGYIVESQGVEYFLSRSHSSLKNDANHIGKRVKACIIRVDKENHSINISRKRFFEVNDKRQLEVSKELLEATEPVLGVVRQITPFGIFVEAKGIEGLVHYSEISHKGPVNPEKYYKEGDEVYVKAIAYDAEKRRLSLSIKATIEDPWEEIQDKLKPGYAIKVVVSNIEHYGVFVDIGNDIEGFLHVSEISWDKNVSHPNNYLSVGQEIDVKIIDIDPKNRRLRVSLKQLTNRPFDVFESKHQVGDVLEGKVATLTDFGAFLNLGGVDGLLHNHDAFWDKDKKCKDHYKIGDVIKVKILKINKKDKKISLSAKHLVTSPTEEFAQKHKTDSVIQGKVVSIKDFGVFINADGIDVLIKNEDLNPLKKDEIKIGQEITCVVVAIEKSNNKVRASVHRLERKKEKEELQAFNTSDDKMTLGDILKEKLLEHHHHHH | soluble |
| MQSYTNRICAVCGDTPAKIHYGVLACFGCKGFFRRAVKDGRNKYVCRFEKNCEVTKFERNACRYCRFRKCLLVGMNPDYVRPDREKSKKGKTVLSKKKSVSRSLSYRLADPSDWTSFLSPSSRKQLSEIGKLAETCSTSTNFDGIGNFSLKSLIADRSLARKTGDSEAMDCSNSPRQLNEQFLGIERIVQCVDYIDRFLVMLEEEHCRKFSVEDKSALISDTMIHLLLFESTSRFVAKGAPGLEDLKLSLAQLPICTTHLTQKIADVFETYLRKPPSIIEYSVLKAYIVLSAESTVLSNSLNESLSLARENLSELLFKVIKHSRNKTSISAANSLSTILHFVYESRNLASRIRQSQQPFFVRDSDPKIPFHKILTDIINPEVSDLLLTTANCRKLSTQMGSSLSSVPPVPPPSDTVPLFHFSPPSLSPCQISAPPPPQQQYTDYSQMPSTSSYPANSSPFQSPYRPNSLSSFPKIPLEMTKSIEEFLRPNGMTTDEMNKPLEKNWADGFRLTPVFNKDIVSQFFPELSNINQHHPF | not soluble |
| MSIFQSFKSVAAAIAVCAGIFTGFSANAQSVDDIVKRGSVKIGVLVGAPPFGSVDAQGNPVGYDADVATLIGKYLGVPVTMVQLTPPSRIPALESGKVDFLVATLAPTPERAKAVMFTNPYSAFQVGIYSHKDTKIEKWEDLKGMTVGVNRGSSVEREFVNREKELGLTILRFDDDATTMQALFSGQVQAIAGPDAQANAAIKLRGDTTTEVKFFFSIQPNSMTVRKDAVDLHQWLNNTIYYIKQNGELDAIARKWVGTPLPVLPTF | not soluble |
| DQAGKSPNAVRYHGGDEIILQGFHWNVVREAPNDWYNILRQQAATIAADGFSAIWMPVPWRDFSSWSDGSKSGGGEGYFWHDFNKNGRYGSDAQLRQAASALGGAGVKVLYDVVPNHMNRGYPDKEINLPAGQGFWRNDCADPGNYPNDCDDGDRFIGGDADLNTGHPQVYGMFRDEFTNLRSQYGAGGFRFDFVRGYAPERVNSWMTDSADNSFCVGELWKGPSEYPNWDWRNTASWQQIIKDWSDRAKCPVFDFALKERMQNGSIADWKHGLNGNPDPRWREVAVTFVDNHDTGYSPGQNGGQHHWALQDGLIRQAYAYILTSPGTPVVYWDHMYDWGYGDFIRQLIQVRRAAGVRADSAISFHSGYSGLVATVSGSQQTLVVALNSDLGNPGQVASGSFSEAVNASNGQVRVWRSGTGSGGGEPGALVSVSFRCDNGATQMGDSVYAVGNVSQLGNWSPAAALRLTDTSGYPTWKGSIALPAGQNEEWKCLIRNEANATQVRQWQGGANNSLTPSEGATTVGRL | soluble |
| MGHHHHHHSHMWVDDFPLHRSACEGDSELLSRLLSERFSVNQLDSDHWAPIHYACWYGKVEATRILLEKGKCNPNLLNGQLSSPLHFAAGGGHAEIVQILLNHPETDRHITDQQGRSPLNICEENKQNNWEEAAKLLKEAINKPY | not soluble |
| MGSDKIHHHHHHMPTPIKIGVSSCLLGEKVRYDGGHKHDRYITDTLGRFFEFVSVCPEAECGMPIPREAMRLEADGGEVRLVTSRSRVDKTEQMLDFCRRKVLELESEDLCGFIFKKDSPSSGLFNVKLYRRGMPTKAGRGLFADAVTKHFPLLPVEEEGRLHDMGLREHFIERVFAFRRWKDLLLGGKSLGRLVAFHADHKLLIMAHSPEVYREMGALVARGKELGCDDLFACYQELFMKALSLHATVRKNTNVLQHIAGYFKKQLTREEKAELQEVIGEYHRHLVPLIVPVTLLRHYVKKYGQEYLLKQVYLSPTPLELMLRNHV | not soluble |
| DENASAAEQVNKTIIGIDPGSGIMSLTDKAMKDYDLNDWTLISASSAAMTATLKKSYDRKKPIIITGWTPHWMFSRYKLKYLDDPKQSYGSAEEIHTITRKGFSKEQPNAAKLLSQFKWTQDEMGEIMIKVEEGEKPAKVAAEYVNKHKDQIAEWTKGVQKVKGDKINLAYVAWDSEIASTNVIGKVLEDLGYEVTLTQVEAGPMWTAIATGSADASLSAWLPNTHKAYAAKYKGKYDDIGTSMTGVKMGLVVPQYMKNVNSIEDLKK | soluble |
| DDFLTLDACKIALKEMKKGFDLLCFDAFVHRVKTKQFYRFKQDEFFNQKEFLEFLSKQRHFCWSVWAKCFRKDIILKSFEKIKIDERLSYGEDVLFCYVYFMFCEKIAVFKTCIYHYEFNPNGRYENKNKEILWQNYQDKKKSNELVKKLCLNFKNNDFHKKLFEVLEKEEFDLQRRVDEARN | not soluble |
| MAHHHHHHMFPGEQDITGSQLAEYVREQVQASANLVVYVEDTHCDVDTIGLRRLHATIGGTAVFSGYDLYRRSKYEKVEQGLDELWTSNVVLEASAIGSLSALCDNVRMVRRHEGCTIALAPQSLMHNVAFAVHLAVGVGARFLCVGGLMDVVQCEVVSQYLYVQDELEQSRLLLEEAPKPPCAVLPDAPTDTVPEIKRRLDKKKRKK | not soluble |
| MEVFVFTPKGDLYKMPKGATVLDFAFAIHSKLGSKCIGAKVNGKNAQLKQTLNSGLEHHHHHH | not soluble |
| MKFVAPEQAPEQAEVIKNTPFWPDVDLSEFRSVMRTDGTVTQPRLKQVVLTAISEVNAELYDFRNRQQMLGWRTLAEVPAEMLDGKSERIRHYHNAVFCWARAVLNERYQDYDATASGVKRGEELAEASGDLWRDARWAISRVQDVPHCTVELI | not soluble |
| MDNFMDYIYRDFHIMQQTYATLVSVNNKIQIQTDKYSDNITSRQYMTILAIFHLPEDETTLNNIAKKLGTTKQNIKQIINILEGKGYVQTMPSKQDKRAINVSVTKEGWQVAESYAEKSFELFGDIFNDFSVEEMKILWMLLKKLYRFDGEEQDGFEEDANPSGELTEEQIEMAEAFARRRREKYGSK | not soluble |
| ATLKDITRRLKSIKNIQKITKSMKMVAAAKYARAERELKPARVYGVGSLALYEKADIKTPEDKKKHLIIGVSSDRGLCGAIHSSVAKQMKSEAANLAAAGKEVKIIGVGDKIRSILHRTHSDQFLVTFKEVGRRPPTFGDASVIALELLNSGYEFDEGSIIFNRFRSVISYKTEEKPIFSLDTISSAESMSIYDDIDADVLRNYQEYSLANIIYYSLKESTTSEQSARMTAMDNASKNASEMIDKLTLTFNRTRQAVITKELIEIISGAAAL | soluble |
